This note sets out measurements from article PMC10364083, “Dimerization of European Robin Cryptochrome 4a” (The Journal of Physical Chemistry. B, 2023).

Values joined by “and” are separate entries in the source; they are usually repeats but may differ in a detail not shown here. Identical values can stand only once.

The target in one experiment is T1, ErCry4a (Erithacus rubecula, UniProt A0A2I4SZI9).
T1 construct: full-length wild type (CTT residues 498-527), N-terminal 10x His-tag kept for native MS, expressed in E. coli; monomer with minor disulfide-linked dimer
T1 sequence (A0A2I4SZI9 1-527): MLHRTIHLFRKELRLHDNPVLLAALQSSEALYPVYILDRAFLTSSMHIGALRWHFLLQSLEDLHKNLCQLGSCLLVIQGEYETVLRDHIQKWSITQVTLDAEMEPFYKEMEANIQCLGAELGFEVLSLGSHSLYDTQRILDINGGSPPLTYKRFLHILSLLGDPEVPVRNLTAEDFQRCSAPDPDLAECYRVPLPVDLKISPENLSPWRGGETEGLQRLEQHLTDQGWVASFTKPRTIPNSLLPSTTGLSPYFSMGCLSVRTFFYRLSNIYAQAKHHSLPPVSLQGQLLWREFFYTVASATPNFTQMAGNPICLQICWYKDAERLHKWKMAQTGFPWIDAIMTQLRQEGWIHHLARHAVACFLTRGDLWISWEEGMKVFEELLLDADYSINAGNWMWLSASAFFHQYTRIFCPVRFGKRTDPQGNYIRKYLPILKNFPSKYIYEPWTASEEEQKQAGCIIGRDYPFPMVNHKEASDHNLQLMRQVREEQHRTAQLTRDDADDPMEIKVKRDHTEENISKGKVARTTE
The experiment in a line: native mass spectrometry of holoprotein. The note with it: co-purified non-covalently bound FAD; 200 mM ammonium acetate, pH 8; monomer and dimer. It counts as binding.

In experiment [1] the target is ErCry4a C317A mutant (European robin (Erithacus rubecula)). The experiment in a line: native MS; 200 mM ammonium acetate, pH 8; nanoflow electrospray, Q Exactive, positive ion mode; micromolar protein concentrations; His-tagged proteins; WT sample of Figure 3A shipped with 10 mM BME.
Experiment [2] deals with ErCry4a C412A + C317A mutant (European robin (Erithacus rubecula)). The experiment is described as above.
Experiment [3] concerns the target ErCry4a C412A mutant (European robin (Erithacus rubecula)). The experiment is described as above.
Experiment [4] has as its target European robin cryptochrome 4a (Erithacus rubecula Cry4a), wild type, with N-terminal 10x His-tag (European robin (Erithacus rubecula)). The experiment in a line: mass photometry; 44 nM ErCry4a WT in 200 mM ammonium acetate, pH 8.3; sample shipped with 2 mM DTT; ONE-MP instrument.
The target is the same in experiment [5]. Briefly: native MS; 200 mM ammonium acetate, pH 8; nanoflow electrospray, Q Exactive, positive ion mode; micromolar protein concentrations; His-tagged proteins; WT sample of Figure 3A shipped with 10 mM BME.
For experiment [6] the target is unchanged. The experiment is described as above. This is another data set of the same source.

Regarding `Cc1cc2nc3c(=O)[nH]c(=O)nc-3n(C[C@H](O)[C@H](O)[C@H](O)COP(=O)(O)OP(=O)(O)OC[C@H]3O[C@@H](n4cnc5c(N)ncnc54)[C@H](O)[C@@H]3O)c2cc1C` [FAD], the “native mass spectrometry of holoprotein” value on ErCry4a is “the ErCry4a dimers bind FAD and have native MS charge-state distributions”. The stoichiometry N is the number of molecules, sites or subunits per partner or assembly. Take ErCry4a C317A mutant (natural protein): the stoichiometry N in experiment [1] is 2 and 3.

For “ErCry4a C412A + C317A mutant (natural protein)”, in experiment [2], the stoichiometry N is 2 and 3.

For the compound ErCry4a C412A mutant (natural protein), the stoichiometry N in experiment [3] is 2 and 3. Regarding “European robin cryptochrome 4a (Erithacus rubecula Cry4a), wild type, with N-terminal 10x His-tag (natural protein)”, in experiment [4], the percent of counts in the dimer peak came to 11%. Also, the stoichiometry N in experiment [4] was determined as 2; in experiment [5] it was 2; in experiment [6], 3.
